The text below walks through data of US20210380651A1 (SIOLTA THERAPEUTICS, published 2021).

This assay addresses T1, IgE-Fc protein having the amino acid sequence set forth in SEQ ID NO: 5 (murine, UniProt P06336 91-421, glycosylated (fully glycosylated IgE-Fc)).
T1 construct: Made in HEK293T cells; also called murine IgE-Fc; single domain IgE-Fc; not shown: TEV-His tag (detected with anti-His antibodies)
T1 sequence: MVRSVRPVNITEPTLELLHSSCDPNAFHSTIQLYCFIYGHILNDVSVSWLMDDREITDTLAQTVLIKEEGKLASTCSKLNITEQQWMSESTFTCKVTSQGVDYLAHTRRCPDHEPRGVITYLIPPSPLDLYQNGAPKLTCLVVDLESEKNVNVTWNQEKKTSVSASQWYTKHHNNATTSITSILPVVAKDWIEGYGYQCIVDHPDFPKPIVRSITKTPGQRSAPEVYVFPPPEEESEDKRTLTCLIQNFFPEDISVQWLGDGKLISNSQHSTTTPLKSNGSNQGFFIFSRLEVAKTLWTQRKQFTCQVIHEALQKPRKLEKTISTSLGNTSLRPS
Nature of the assay: flow cytometry on RBL-2H3 cells, 30 min, APC anti-His detection. The method, then:
Cells of the histamine-releasing rat cell line RBL-2H3 and human peripheral blood mononuclear cells (PBMCs) were treated with the IgE-Fc protein (purified) having the amino acid sequence set forth in SEQ ID NO: 5 and the IgG-Fc-IgE-Fc fusion protein (unpurified, obtained from cell culture supernatant) having the amino acid sequence set forth in SEQ ID NO: 12 for 30 min. Cells were then thoroughly washed and stained with allophycocyanin (APC) conjugated anti-His antibodies and subsequently analyzed by flow cytometry. Anti-His antibodies detected Fc proteins that were bound to the cell surface due to their specific interaction with Fc epsilon Receptor I (FcεRI) and Fc gamma Receptor IIB (FcγRIIB), respectively. IgG-Fc-IgE-Fc proteins were able to bind to both the rat basophil cell line RBL-2H3 as well as to human PBMCs (comprised about 50-70% […], 10-25% T cells, and 20-30% of cells expressing FcgRIIB), even in very low concentrations in which the IgG-Fc-IgE-Fc fusion protein was present (approximately 0.05 mg/mL) in cell culture supernatants compared to purified and highly concentrated IgE-Fc proteins (approximately 1 mg/mL).

B1: Fc epsilon Receptor I (FcεRI) on cells of the rat basophil cell line RBL-2H3 (receptor, UniProt P12371 24-245, looked up)
chain: ATQKSVVSLDPPWIRILTGDKVTLICNGNNSSQMNSTKWIHNDSISNVKSSHWVIVSATIQDSGKYICQKQGFYKSKPVYLNVMQEWLLLQSSADVVLDNGSFDIRCRSWKKWKVHKVIYYKDDIAFKYSYDSNNISIRKATFNDSGSYHCTGYLNKVECKSDKFSIAVVKDYTIEYRWLQLIFPSLAVILFAVDTGLWFSTHKQFESILKIQKTGKGKKKG
notes: whole, on cells; the receptor on cells also has beta and gamma chains; also called FceRI; Fc epsilon receptors
With B1, the binding result was “binds”.
